# Measurements from patent US6610541B2, “Recombinant, active caspases and uses thereof” (Thomas Jefferson University, priority 1998, dated 2003).
# T1: rev-caspase-3 (Homo sapiens, UniProt P42574)
# T1 sequence (P42574 with tags, fused parts or gaps): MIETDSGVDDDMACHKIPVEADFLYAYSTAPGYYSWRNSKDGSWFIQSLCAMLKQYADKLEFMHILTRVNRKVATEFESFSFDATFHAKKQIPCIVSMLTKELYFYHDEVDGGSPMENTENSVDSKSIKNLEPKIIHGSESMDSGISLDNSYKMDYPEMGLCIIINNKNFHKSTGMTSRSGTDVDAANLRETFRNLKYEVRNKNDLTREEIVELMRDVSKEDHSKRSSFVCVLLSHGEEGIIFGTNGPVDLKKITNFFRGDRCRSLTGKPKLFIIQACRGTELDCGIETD
# T2: rev-caspase-6 (Homo sapiens, UniProt P55212)
# T2 sequence (P55212 with tags, fused parts or gaps): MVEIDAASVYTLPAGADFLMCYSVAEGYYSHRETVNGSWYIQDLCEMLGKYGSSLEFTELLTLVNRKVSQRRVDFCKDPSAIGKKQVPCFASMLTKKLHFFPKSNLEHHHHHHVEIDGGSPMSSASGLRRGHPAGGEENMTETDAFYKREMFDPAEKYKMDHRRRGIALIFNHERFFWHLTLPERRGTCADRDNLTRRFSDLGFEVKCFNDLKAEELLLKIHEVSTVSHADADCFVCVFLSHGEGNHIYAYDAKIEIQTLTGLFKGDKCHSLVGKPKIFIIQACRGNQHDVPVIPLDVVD
# T3: uncleavable rev-caspase-3 (Homo sapiens, UniProt P42574, D28A/D9A)
# T3 construct: uncleavable rev-caspase-3 (B); made in house; host or cells: in vitro translation in rabbit reticulocyte lysate (TNT Kit, Promega)
# T3 sequence (P42574 with tags, fused parts or gaps D9A/D28A): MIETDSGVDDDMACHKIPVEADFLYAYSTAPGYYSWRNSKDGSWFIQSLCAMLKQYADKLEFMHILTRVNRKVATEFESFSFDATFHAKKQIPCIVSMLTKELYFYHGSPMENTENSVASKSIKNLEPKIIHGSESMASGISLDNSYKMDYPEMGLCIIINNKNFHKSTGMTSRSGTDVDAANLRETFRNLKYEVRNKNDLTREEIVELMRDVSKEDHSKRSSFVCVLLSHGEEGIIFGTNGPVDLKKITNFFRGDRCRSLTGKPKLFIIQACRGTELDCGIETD
# T4: caspase-6 (Homo sapiens, UniProt P55212)
# T4 sequence (P55212 24-293): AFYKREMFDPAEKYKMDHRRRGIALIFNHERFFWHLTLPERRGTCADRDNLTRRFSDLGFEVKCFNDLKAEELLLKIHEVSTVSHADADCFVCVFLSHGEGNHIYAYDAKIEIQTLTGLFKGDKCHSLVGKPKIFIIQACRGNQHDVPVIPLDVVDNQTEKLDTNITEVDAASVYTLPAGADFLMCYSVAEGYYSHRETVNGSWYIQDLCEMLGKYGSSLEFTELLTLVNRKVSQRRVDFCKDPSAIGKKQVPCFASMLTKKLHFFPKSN
# B1: baculovirus p35: baculovirus p35, which inhibits the activity of most caspases (protein)
# chain: MCVIFPVEIDVSQTIIRDCQVDKQTRELVYINKIMNTQLTKPVLMMFNISGPIRSVTRKNNNLRDRIKSKVDEQFDQLERDYSDQMDGFHDSIKYFKDEHYSVSCQNGSVLKSKFAKILKSHDYTDKKSIEAYEKYCLPKLVDERNDYYVAVCVLKPGFENGSNQVLSFEYNPIGNKVIVPFAHEINDTGLYEYDVVAYVDSVQFDGEQFEEFVQSLILPSSFKNSEKVLYYNEASKNKSMIYKALEFTTESSWGKSEKYNWKIFCNGFIYDKKSKVLYVKLHNVTSALNKNVILNTIK
# B2: rev-caspase-6: contiguous caspase-6 with small subunit fused N-terminal to large subunit, VEID cleavage site between them (SEQ ID NO:36) (protein)
# chain: T2 sequence (P55212 with tags, fused parts or gaps)
# modifications: OTHER INFORMATION: Rev-Caspase-6 contructed fro m human caspase-6
# What was measured:
# rev-caspase-3 [1] = biological target: T1, rev-caspase-3; experiment: Inhibition of rev-caspase-3 induced apoptosis in transfected MCF-7 cells; format: cell-based; parameters: T7-tag (15 residues) (N); made in house; conditions: co-transfection with 4-fold expression construct
# Protocol: (§1) FIGS. 4A and B are bar diagrams representing the ability of rev-caspase-3 and -6 to induce apoptosis in MCF-7 cells. MCF-7 cells were transiently transfected with either rev-caspase-3 (FIG. 4A), or rev-caspase-6 (FIG. 4B) expression constructs in combination with 4-fold of CrmA, p35 or Bcl-2 expression constructs, or 20 μM zVAD-fmk. Cells transfected with an empty vector or the wild-type caspase-3 or -6 were used as controls.
# (§2) To express the rev-caspases in mammalian cells and assay their apoptotic activity, they were amplified with the T7-tag primer and the LS-reverse primers using the pET28a constructs as templates, and subcloned into the mammalian double expression vector pRSC-LacZ (MacFarlane et al., J. Biol. Chem., 272: 25417-25420, 1997; Tsang et al., Bio/Technology, 22: 68, 1997). This vector allows the expression of lacZ under the Rous Sarcoma virus promoter, and the test cDNA under the CMV promoter. To assay for apoptosis, MCF-7 or 293 cells were transfected, using the method commercially available as the Lipofect Amine method (Life Technologies, Inc.), with the pRSC-LacZ constructs in the presence or absence of different apoptosis-inhibitors. 30 h after transfection cells were stained with β-galactosidase and examined for morphological signs of apoptosis. […]
# rev-caspase-6 [2] = biological target: T2, rev-caspase-6; experiment: Inhibition of rev-caspase-6 induced apoptosis in transfected MCF-7 cells; format: cell-based; parameters: T7-tag (15 residues) (N); made in house; conditions: co-transfection with 4-fold expression construct
# Protocol: as §1, §2
# rev-caspase-6 [3] = biological target: T2, rev-caspase-6; experiment: Autocatalytic processing of in vitro translated rev-caspase-6 (SDS-PAGE/autoradiography); format: biochemical; parameters: T7-tag (15 residues) (N); made in house; host or cells: in vitro translation in rabbit reticulocyte lysate (TNT Kit, Promega)
# Protocol: (§3) FIGS. 2B and C are scanned images of autoradiograms representing SDS-PAGE analysis of the autoprocessing of rev-caspase-3 and -6, respectively in the presence of varying levels of selected caspase inhibitors. Rev-caspase-3 (FIG. 2B) or rev-caspase-6 (FIG. 2C) were in vitro translated in the presence of increasing concentrations of DEVD-CHO […]; (SEQ ID NO:52), or zVAD-fmk (0-5 μM). The translation products were then analyzed as in FIG. 2A. WT, wild-type.
# (§4) ^35S-labeled caspases (wild-type and rev-caspases) were obtained by in vitro translation in the presence of ^35S-methionine using a coupled transcription/translation system in rabbit reticulocyte lysate using TNT Kit (Promega) according to the manufacturer's recommendations.
# (§5) To test the effect of selected caspase inhibitors on the autocatalytic activity of rev-caspase-3 and 6, the rev-caspases were translated as in Example 3, but in the presence of varying amounts of inhibitors.
# [4] = biological target: T3, uncleavable rev-caspase-3; experiment: In vitro translation of uncleavable rev-caspase-3: His6-T7-tag processing; format: biochemical; conditions: 400 nM DEVD-CHO during in vitro translation
# Excerpt: FIG. 5A is a scanned image of an autoradiogram representing SDS-PAGE analysis of the enzymatic activity of uncleavable rev-caspase-3. Uncleavable rev-caspase-3 was in vitro translated in the absence or the presence of increasing concentrations of DEVD-CHO (SEQ ID NO:52),. The translation product contains a cleavable 35 residues-long His6-T7-tag at its N-terminus. The active site mutant rev-caspase-3 (Rev C/A) was used as a control. The p32 cleavage product without the His6-T7-tag is indicated to the right.
# ^35S-labeled caspases (wild-type and rev-caspases) were obtained by in vitro translation in the presence of ^35S-methionine using a coupled transcription/translation system in rabbit reticulocyte lysate using TNT Kit (Promega) according to the manufacturer's recommendations. […] Because the in vitro translated products are present at very low concentration in the reaction mixture, the observed cleavage must be attributed to an intramolecular processing within the caspase heterotetramer.
# However, to follow the activity of this molecule a cleavable 35 residue long His6-T7-tag N-terminal to the IETD (SEQ ID NO:53) site was introduced (see FIG. 1B). […] Nevertheless, the translated molecule was active as evident from its ability to cleave its T7-tag to form the p32 species (FIG. 5). In the presence of 400 nM DEVD-CHO (SEQ ID NO:52), processing of the T7-tag was inhibited and only the full length p34 species can be seen. […] Thus by mimicking the mature caspase structure, it is possible to design a contiguous active caspase molecules.
# rev-caspase-3 [5] = biological target: T1, rev-caspase-3; experiment: Autocatalytic processing of in vitro translated rev-caspase-3 (SDS-PAGE/autoradiography); format: biochemical; parameters: T7-tag (15 residues) (N); made in house; host or cells: in vitro translation in rabbit reticulocyte lysate (TNT Kit, Promega)
# Protocol: as §3, §4, §5
# caspase-6 = biological target: T4, caspase-6; conditions: earlier observations, J. Biol. Chem. 271:27099; cited from earlier work
# lamin A = experiment: Cleavage of in vitro translated lamin A C-terminus by bacterially expressed caspases; format: biochemical; conditions: BL-21 bacterial extracts, 2 h at 37° C.
# Protocol: FIGS. 3A and B are scanned images representing the SDS-PAGE analysis of the ability of rev-caspase-3 (imaged by western blot) and -6 (imaged by autoradiogram) to cleave PARP and lamin, respectively. In FIG. 3A purified human PARP was incubated with buffer (lane 1) or BL-21 bacterial extracts prepared from bacteria transformed with caspase-3 (lane 2), rev-caspase-3 (lane 3), caspase-6 (lane 4), rev-caspase-6 (lane 5) constructs or empty pET28a vector (lane 6) for 2 h at 37° C. The reaction products were then analyzed by SDS-PAGE and Western blotting with anti-human PARP antibody. In FIG. 3B a cDNA encoding the C-terminus of lamin A (amino acids) which contain the caspase-6 cleavage site (VEIDA); (SEQ ID NO:116), was amplified by PCR and in vitro translated in the presence of ^35S-methionine. The labeled product was incubated with buffer (lane 1) or the BL-21 bacterial extracts listed above for 2 h at 37° C., and then analyzed by SDS-PAGE and autoradiography. The cleavage products are indicated to the right.
# At limited caspase concentrations, poly(ADP) ribose polymerase (PARP) is specifically cleaved by caspase-3 and 7 but not other caspases. Similarly, lamin is specifically cleaved by caspase-6 but not other caspases. […]
# MCF-7 cells = experiment: Induction of apoptosis in transfected MCF-7 cells (round blue apoptotic cells); format: cell-based, human; conditions: 30 h after transfection
# Protocol: as §1
# To express the rev-caspases in mammalian cells and assay their apoptotic activity, they were amplified with the T7-tag primer and the LS-reverse primers using the pET28a constructs as templates, and subcloned into the mammalian double expression vector pRSC-LacZ (MacFarlane et al., J. Biol. Chem., 272: 25417-25420, 1997; Tsang et al., Bio/Technology, 22: 68, 1997). This vector allows the expression of lacZ under the Rous Sarcoma virus promoter, and the test cDNA under the CMV promoter. To assay for apoptosis, MCF-7 or 293 cells were transfected, using the method commercially available as the Lipofect Amine method (Life Technologies, Inc.), with the pRSC-LacZ constructs in the presence or absence of different apoptosis-inhibitors. 30 h after transfection cells were stained with β-galactosidase and examined for morphological signs of apoptosis. The percentage of round blue apoptotic cells (mean±SD) were represented as a function of total blue cells under each condition (n≧3).
# To determine the apoptotic activity of rev-caspase-3 and 6 in vivo, the rev-caspases were expressed in human MCF-7 cells, transfected as explained above in Example 2.
# [6] = at the concentration used (zVAD-fmk 0-5 μM), p35 data not shown
molecule,measurement,setting,value
Bc1-2: overexpressed protein that protects against different forms of apoptosis [reference compound],effect of overexpression on apoptotic activity of rev-caspase-3,rev-caspase-3 [1],did not significantly reduce
same,effect of overexpression on apoptotic activity of rev-caspase-6,rev-caspase-6 [2],did not significantly reduce
DEVD-CHO [reference compound],effect on the autocatalytic activity of rev-caspase-6,"rev-caspase-6 [3]; same concentrations (40-400 nM), inhibitor present during in vitro translation",little effect
same,processing of the T7-tag of uncleavable rev-caspase-3,[4],inhibited
same,inhibition of the autocatalytic activity of rev-caspase-3,"rev-caspase-3 [5]; at 40-400 nM concentration, inhibitor present during in vitro translation",50-90%
same,inhibition of caspase-6,caspase-6,poorly inhibited
B1,inhibitory effect on rev-caspase-6 autocatalytic activity compared with rev-caspase-3,rev-caspase-6 [3]; [6],nearly an equal inhibitory effect
same,effect of overexpression on apoptotic activity of rev-caspase-3,rev-caspase-3 [1],partially protected
same,effect of overexpression on apoptotic activity of rev-caspase-6,rev-caspase-6 [2],partially protected
same,inhibitory effect on rev-caspase-3 autocatalytic activity compared with rev-caspase-6,rev-caspase-3 [5]; [6],nearly an equal inhibitory effect
B2,autocatalytic processing in the in vitro translation reaction (rev-caspase-6 constructs),"rev-caspase-6 [3]; rabbit reticulocyte lysate, 35S-methionine",able to undergo autocatalytic processing
same,cleavage of lamin,lamin A,efficiently cleaved lamin
same,apoptosis in transfected cells,MCF-7 cells,~90%
